In data set [1] the target is PseCAST Cas7 (Pseudoalteromonas). The data set is described as follows: cryo-EM structure.
Data set [2] deals with the molecule itself. The data set is described as follows: cryo-EM structure.

In turn, PseCAST Cas7 (natural protein) registered a stoichiometry N in data set [1] of 6.

B1: PseCAST TniQ (natural protein)
chain: MAFLFSPKIGPFFDESLESYLLRVVSENFFDSYEGLSLAIREELHELDFEAHGAFPIDLKRLNVYHAKHNSHFRMRALGLLETLLDLPRYELQKLALLKSDIKFNSSAALYKGGVDIPQRFICYHTEEAVDSIPVCPQCLAEEAYIKQSWHIKWVNACAKHQCTLVHKCPECCAPINYIENESITHCSCGFELSCGSTSPVNTLSIDHLNKLLNKSELDDNNPLFKNTTLTERFAALLWYQERYSKEETFCLDDVVNYFNGWPVVFYKELDELSKNAAMKLIDLFNKTEFKFIFGNAILSCPNTQKQREPHFIYSTLLDYLATLVESNPKTKKPNVADLLVSVLEAATLLSISIEQVYRLYQDGILQTAFRHKMNQRINPYKGVFFLRHVIEYKTSFGNDKARMYLSAW
As to B1, the “stoichiometry N” value in data set [2] stood at 2.

The stoichiometry N is a count of units in the complex or per binding partner.

For the origin of these results see paper PMC11429998 (bioRxiv, 2024).
